Source: patent US20210318338A1
Values joined by “and” are separate entries in the source; they are usually repeats but may differ in a detail not shown here. Identical values can stand only once. Like-named read-outs stand apart in the source and are kept apart here.

What was measured:
Experiment in all cases: cell-based or functional assay
[1] = target: protein S (purified, free form) (UniProt P07225)
[2] = target: protein S (purified, free form) (UniProt P07225); remark: listed apart in the source
[3] = target: tissue factor pathway inhibitor alpha (TFPIα) (UniProt P10646)
UniProt P10646, sequence (P10646 29-304 limits assumed): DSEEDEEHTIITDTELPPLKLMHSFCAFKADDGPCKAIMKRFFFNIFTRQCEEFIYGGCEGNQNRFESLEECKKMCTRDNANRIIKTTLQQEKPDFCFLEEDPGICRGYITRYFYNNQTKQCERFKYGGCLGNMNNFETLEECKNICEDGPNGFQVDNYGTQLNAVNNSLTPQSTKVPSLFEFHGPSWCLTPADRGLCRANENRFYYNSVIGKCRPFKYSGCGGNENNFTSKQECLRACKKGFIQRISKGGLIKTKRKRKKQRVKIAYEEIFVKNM

Molecule: C4b-binding protein (C4BP) without bound protein S (from UniProt P04003 49-597; P20851 18-252)
- loss of the TFPIα-cofactor activity of protein S in the FXa inhibition assay (S2765 absorbance; 5 nM protein S, 2 nM FV-Short, 0.25 nM TFPIα, 0.3 nM FXa) [1]: 3.13 nM
- loss of the TFPIα-cofactor activity of protein S in the FXa inhibition assay (S2765 absorbance; 5 nM protein S, 2 nM FV-Short, 0.25 nM TFPIα, 0.3 nM FXa) [2]: 6.25 nM

B1: protein S (purified, free form) (protein, UniProt P07225 42-676, looked up)
chain: ANSLLEETKQGNLERECIEELCNKEEAREVFENDPETDYFYPKYLVCLRSFQTGLFTAARQSTNAYPDLRSCVNAIPDQCSPLPCNEDGYMSCKDGKASFTCTCKPGWQGEKCEFDINECKDPSNINGGCSQICDNTPGSYHCSCKNGFVMLSNKKDCKDVDECSLKPSICGTAVCKNIPGDFECECPEGYRYNLKSKSCEDIDECSENMCAQLCVNYPGGYTCYCDGKKGFKLAQDQKSCEVVSVCLPLNLDTKYELLYLAEQFAGVVLYLKFRLPEISRFSAEFDFRTYDSEGVILYAESIDHSAWLLIALRGGKIEVQLKNEHTSKITTGGDVINNGLWNMVSVEELEHSISIKIAKEAVMDINKPGPLFKPENGLLETKVYFAGFPRKVESELIKPINPRLDGCIRSWNLMKQGASGIKEIIQEKQNKHCLVTVEKGSYYPGSGIAQFHIDYNNVSSAEGWHVNVTLNIRPSTGTGVMLALVSGNNTVPFAVSLVDSTSEKSQDILLSVENTVIYRIQALSLCSDQQSHLEFRVNRNNLELSTPLKIETISHEDLQRQLAVLDKAMKAKVATYLGGLPDVPFSATPVNAFYNGCMEVNINGVQLDLDEAISKHNDIRAHSCPSVWKKTKNS
modifications: contains the modified amino acid gamma-carboxy glutamic acid (positions not given)
- inhibition of FXa by TFPIα (S2765 absorbance) with phospholipid vesicles and 2 nM FV-Short, protein S titrated [3]: 1.25 nM and 5 nM
- inhibition of FXa by TFPIα (S2765 absorbance) without added FV-Short [3]: > 10 nM
